Legend:
[1] = target: human RetGC1 p.(Arg624Gln) (human) (UniProt Q02846)
[2] = target: human RetGC1 p.(Tyr555Ser) (human) (UniProt Q02846)
[3] = target: human RetGC1 p.(Leu587Val) (human) (UniProt Q02846)
[4] = target: T1, human retinal guanylyl/guanylate cyclase 1 (RetGC1), wild type (human) (UniProt Q02846)
T1 sequence: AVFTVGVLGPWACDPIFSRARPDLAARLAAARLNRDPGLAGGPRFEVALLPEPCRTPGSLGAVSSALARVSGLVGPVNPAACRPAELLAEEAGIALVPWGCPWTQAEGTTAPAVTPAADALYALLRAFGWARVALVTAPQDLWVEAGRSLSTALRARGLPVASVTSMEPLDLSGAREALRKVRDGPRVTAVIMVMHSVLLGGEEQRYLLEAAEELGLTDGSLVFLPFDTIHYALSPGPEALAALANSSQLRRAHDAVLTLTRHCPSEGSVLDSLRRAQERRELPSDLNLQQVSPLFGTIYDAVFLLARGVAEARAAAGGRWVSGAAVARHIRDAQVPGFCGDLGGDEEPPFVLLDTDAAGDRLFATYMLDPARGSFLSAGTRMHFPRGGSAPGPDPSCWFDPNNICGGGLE

B1: Human GCAP1 (Ser6) (natural protein)
chain: MGNVMSGKSVEELSSTECHQWYKKFMTECPSGQLTLYEFRQFFGLKNLSPSASQYVEQMFETFDFNKDGYIDFMEYVAALSLVLKGKVEQKLRWYFKLYDVDGNGCIDRDELLTIIQAIRAINPCSDTTMTAEEFTDTVFSKIDVNGDGELSLEEFIEGVQKDQMLLDTLTRSLDLTRIVRRLQNGEQDEEGADEAAEAAG
[GCAP]1/2: GCAP1 concentration producing half-maximal stimulation of guanylyl cyclase activity (HEK293 membranes, 10 mM MgCl2, 2 mM EGTA) [1]: 4.1 µM | [GCAP]1/2: GCAP1 concentration producing half-maximal stimulation of guanylyl cyclase activity (HEK293 membranes, 10 mM MgCl2, 2 mM EGTA) [2]: 4.4 µM | [GCAP]1/2: GCAP1 concentration producing half-maximal stimulation of guanylyl cyclase activity (HEK293 membranes, 10 mM MgCl2, 2 mM EGTA) [3]: 2.4 µM | [GCAP]1/2: GCAP1 concentration producing half-maximal stimulation of guanylyl cyclase activity (HEK293 membranes, 10 mM MgCl2, 2 mM EGTA) [4]: 0.98 µM
